± gives the standard deviation of the averaged measurements.
B1: library; a variant is named by its letters at N, in order (parent)
chain: GCUGUCACCGGUGCUUGGUACGUUAUAUUCAGCCGGUCUGAUGAGUCUNNNNNNAGACGAAACAGC

Tests used:
(6R,S)-folinic acid [1] = variants of: B1; test: normalized RNA/DNA level without ligand (relative to sTRSVctl = 100) (log10 (% of sTRSVctl)); HEK293T overexpressing SLC46A1; higher = less ribozyme self-cleavage, higher mRNA level; details: without (6R,S)-folinic acid; ligand present: no
In short: (§1)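 Total RNA, extracted with EDTA 72 h after HEK293T cells were transfected with 4 µg per 6-well well of reporter-linked ribozyme switch library plasmids, was reverse-transcribed, amplified, barcoded and sequenced. Ligand, if used, was added 1 h before transfection. RNA level was derived from RNA reads divided by DNA reads and normalized to a spiked-in non-cleaving sequence or to the top sequences. This was multiplied by 100 and log10-transformed, with the top set of 25 sequences and a ≥100 DNA read minimum.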

(6R,S)-folinic acid [2] = variants of: B1; test: normalized RNA/DNA level with ligand (relative to sTRSVctl = 100) (log10 (% of sTRSVctl)); HEK293T overexpressing SLC46A1; ligand concentration (+) RNA-Seq: 6 mM; higher = less ribozyme self-cleavage, higher mRNA level; details: with (6R,S)-folinic acid; ligand present: yes
In short: as §1

Variant | normalized RNA/DNA level without ligand (log10) ((6R,S)-folinic acid [1]) | normalized RNA/DNA level with ligand (log10) ((6R,S)-folinic acid [2])
UGGCUG | 2.066 ± 0.0012 | 2.09 ± 0.023
UGGCUC | 2.07 ± 0.024 | 2.04 ± 0.023
UGGCUU | 2.021 ± 0.00062 | 2.043 ± 0.0081
UGGAGC | 1.996 ± 0.0034 | 2.06 ± 0.036
GGGGGA | 2.057 ± 0.02 | 2.05 ± 0.043
GGGGGU | 2.037 ± 0.0098 | 2.05 ± 0.052
GGGGGG | 2.045 ± 0.019 | 2.04 ± 0.061
GGGGGC | 1.94 ± 0.038 | 2.03 ± 0.022
CGCUCU | 2.1 ± 0.033 | 2.06 ± 0.033
CGCUCC | 2.082 ± 0.015 | 2.057 ± 0.017
CGCUCA | 2.05 ± 0.022 | 2.038 ± 0.008
CGCUCG | 2.047 ± 0.0074 | 2.018 ± 0.015
CGGUCC | 2.066 ± 0.013 | 2.03 ± 0.033
CGGUCU | 2.1 ± 0.035 | 2.05 ± 0.049
CGGUCA | 2.005 ± 0.014 | 1.98 ± 0.064
CGGUCG | 2.042 ± 0.0075 | 2.04 ± 0.021
GGGGUU | 2.014 ± 0.0056 | 2.02 ± 0.034
GGGGUA | 1.988 ± 0.0044 | 1.99 ± 0.028
GGGGUC | 2.023 ± 0.0058 | 2.04 ± 0.048
GGGGUG | 1.997 ± 0.011 | 2.061 ± 0.019

Variant | normalized RNA/DNA level without ligand (log10) ((6R,S)-folinic acid [1]) | normalized RNA/DNA level with ligand (log10) ((6R,S)-folinic acid [2])
AGGCCU | 2.07 ± 0.031 | 2.06 ± 0.0088
AGGCCG | 2.039 ± 0.017 | 2.02 ± 0.039
AGGCCC | 2.068 ± 0.0036 | 2.03 ± 0.056
AGGCCA | 2.0454 ± 0.0016 | 2.04 ± 0.04
GGCGUG | 2.071 ± 0.0047 | 2.06 ± 0.033
GGCGUU | 2.08 ± 0.027 | 2.06 ± 0.034
GGCGUC | 2.058 ± 0.012 | 2.01 ± 0.047
UGGGGC | 2.024 ± 0.01 | 2.02 ± 0.023
UGGGGU | 1.94 ± 0.026 | 2.0251 ± 0.00068
UGGGGA | 1.836 ± 0.0073 | 1.99 ± 0.036
UGGGGG | 1.8 ± 0.017 | 2.008 ± 0.018
AGGGGA | 2.001 ± 0.0065 | 2.04 ± 0.058
AGGGGG | 1.9815 ± 0.00032 | 2.05 ± 0.064
AGGGGU | 1.98 ± 0.025 | 2.02 ± 0.039
AGGGGC | 2.047 ± 0.0056 | 2.04 ± 0.053
AGGUCU | 2.043 ± 0.0045 | 2 ± 0.021
AGGUCA | 1.967 ± 0.014 | 2.01 ± 0.047
AGGUCG | 1.985 ± 0.013 | 2.05 ± 0.043
UGGGUC | 2.11 ± 0.022 | 2.06 ± 0.034
UGGGUU | 1.9881 ± 0.0019 | 2.018 ± 0.016

Variant | normalized RNA/DNA level without ligand (log10) ((6R,S)-folinic acid [1]) | normalized RNA/DNA level with ligand (log10) ((6R,S)-folinic acid [2])
UGGGUA | 1.892 ± 0.0053 | 1.98 ± 0.053
UGGGAA | 1.8778 ± 0.0006 | 1.98 ± 0.028
UGGGAC | 1.99 ± 0.03 | 2.015 ± 0.0073
GGCUCA | 2.073 ± 0.011 | 2.01 ± 0.033
GGCUCC | 2.0314 ± 0.0019 | 2.02 ± 0.046
GGCUCG | 2.067 ± 0.014 | 2.03 ± 0.042
GGCUCU | 2.087 ± 0.0098 | 2.05 ± 0.038
UGGUCA | 1.9757 ± 0.0013 | 2.04 ± 0.062
UGGUCG | 1.844 ± 0.015 | 1.99 ± 0.021
UGGUCU | 1.994 ± 0.015 | 2.0325 ± 0.0019
UGGUCC | 2.039 ± 0.0085 | 2.035 ± 0.016
CGGACA | 2.037 ± 0.0086 | 2.02 ± 0.03
CGGACU | 2.043 ± 0.0042 | 2.01 ± 0.023
CGGACC | 2.072 ± 0.0055 | 2.0545 ± 0.0011
CGGACG | 2.017 ± 0.012 | 2.02 ± 0.0049
CGCUGU | 2.03 ± 0.038 | 2 ± 0.02
CGCUGA | 2.075 ± 0.003 | 2.05 ± 0.03
CGCUGG | 1.974 ± 0.0042 | 2.016 ± 0.0049

From the supplement of paper PMC6757056
